# From the supplement of paper PMC12636428
# Tested on: Saccharomyces cerevisiae
# Assay: transcriptional activation domain activity (GFP:mCherry ratio, weighted mean of sorted bins, harmonized to initial dataset scale) (arbitrary fluorescence ratio units); higher = stronger transcriptional activation
# Conditions: beta-estradiol 1 µM; induction time 4 h
# Procedure, shortened: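 Activation activity, the read-weighted mean of bin median fluorescence averaged across barcodes, was linearly mapped onto the scale of the initial dataset. It was measured for barcoded protein tiles fused to an estradiol-inducible synthetic transcription factor at URA3 in GFP-reporter yeast diploids. Cultures diluted 1:5 into SC with 1 uM beta-estradiol were held 4 hours at 30 °C, sorted into 8 bins by GFP:mCherry ratio, and barcode-sequenced, and tiles under 50 reads were discarded.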
row,Sequence,transcriptional activation domain activity
1,MCINMYFWKVFFMWTLIFFGLSYIPLSFPGMSYFFLLQHEIFLIILGNHFLRF,42000
2,EIDEAAGEINEAAGEVNEAGEVDKAGEVDEAGEVNDEAGKIDKAAGEIDEAAG,30600
3,EVAANHRTILDHTMSLVSAVHIACLRFMTVAWAQAYRRYIVAWIRDLQVLHPH,70400
4,MSASPPTGSGGTDERQRQRVTRACEPCRRKKIRCDGRKPCSACADAQAGNGCA,34300
5,APKDESEAPKPAEEDSPSKRKKAEEVKIEKKEETPARPEPQHTQPKQPAAKAK,10100
6,GDAEPSSKGGEDSSGGEGSADEEKPKAKPAKAKSKSSSSKEPVKKKAKKEKKD,21400
7,LPTINTAIPTAAVPQQNIAPPFLNTNSSATDSNPNTNLEDSLFFDHDLLSSSI,49800
8,VTQLIRDARRLLTCVRTGFVFYLGTCMALTCLQMISFCTVLPPILTGYQILWV,63000
9,VWVKTPWNLYALLLATLSHSLMIDPLLGVLLYYSSITWDPLYRILIFCIFAFW,45400
10,ERHLLPGNIFWAVAFGWWLSGCCMIVSGLLYLVPMGGGRYGKLIYGLGWYLAW,65400
11,DDSRERRRSSRKDREKDRKERKRHRHRSDDKSEDDDDRRHRKDRKRSRPSSAA,22100
12,SIMHALRQFCTEMRATQFQDCRLRTVQLLLRLLPSANLSLFVYLLAFLSQIVQ,36200
13,VSFDFPRSPYPNGSFESFLRDIFARCNLLEVLVFRTKVKSLRGWLKHYTYFAD,75400
14,TSTAPHRGFGFVEFEHPEDAKAAQDNMHLSELYGKTIKVNLARPLKGAGPGGR,57100
15,SKPSARKASSRSVASKEQAAVAAKKVASVEEQKKKRGRPRKLPLSDATNEVAS,42100
16,KGGKRKRREEDDGEEKDSFGGRRGDDGPSRIAKNEGGDGRAGKHKRSGDDGKE,31100
17,NEENIRREQDAADEIAQKLRDDIRSRTGCDVSVGIGSNILQAKVALRKGKPAG,35200
18,VDLSDLGEAVINQSNHNNDNDNSNNGDGNNNNTISELVCFDESIADLYPVEID,71500
19,KQAAEEGDRPKQGGKESGEKENGKAEGSQAREKDRPADGEGKSSDEAGKAKDE,12500
20,MTWFTATLTVLYHLTHPIITIFRWLLLPLTPFYHLFSYIFSTLFLLPSLYIYF,53100
21,VKHTYLMVTILLLFIFITMCCIMDNVRCIVALNNPGLDLGPPNSVIGILINAC,18100

row,Sequence,transcriptional activation domain activity
1,HASAAPTATPAAPTVEKAKPKSREASPAKPKSPERRRPASPAPAAAVPEPVAA,32900
2,PAPAAERREFEEELEARAPGGRGGFRGPRGGPRGPAPAPAPPAAERREFIEDL,28600
3,MVFGHWCVSRLSHNSQILFLLTMLSFPVCENFFGFICNFIILLFARRTLFFVL,59500
4,MYISLFITYLYTYILELCFDFLTIFIIYFHFFSASCMLHSISPLLFICFSFFQ,57700
5,TFLLLSMPALLLLFSALGVCFLLSTSGLFFLSTSGFFFLLTTSGFFFFLFFML,37100
6,VRYKGGLVGKHFKSLAQVMPYLIYDLVPRSVLDGWVMIGRLVVLLWHTLIEDT,85100
7,AFLCWVAPNNATANFIGAGFGGMGFLNLSLDWSNISNLYNLFLTPWWTQVVVY,83700
8,ALDFGLVVRHTTVQYPVPLRFGLLNGNFSFMPLIINSWNMISYILSIYSLVLL,64200
9,GHDGPQQQQQRKKPAAAAAAGKGKEKGKGKGKGQVVVVASKPAKKAASAAAAA,28700
10,MAIDCLALHIPTCVNLWGHVLYVQLVTVMYPSHFFFSFYFIFIFILFLFFLFF,14300
11,LHFLSIDITSPFLPLDILPDLWATMWPWIRLIDSYWDSLPTLHEWFPSIQIYT,57500
12,ATHPDYIDPHNAMDYLSNDGGDSYNLCHFWSNFEIADMDFWRSDAYQAFFDFL,150000
13,KWVAHSVVEKCVLLLILWHRYAMDVVRECSEAWEKLITGKTAPNGISTTNLTV,31500
14,GFRNFVERLTFCLLEDRVRIAMMQPEQPRYLHSFVSSVMGLNWMVQRWLCLPR,47600
15,MATVISGVCFFFFFFFFCFLLCLVMAFLLLFSFLFLCDLLLRLLLLSPSFDSL,31200
16,DDDDDDVETHSIVHSDLLNDMDSASQRASHNASGFPNFLDTSCSSSFDDHFIF,69100
17,VFCMLYTLLHILAACLHYHCFSHLAPPYQTLLWYSYFNVIIVGLLLFWYCELV,35100
18,MNQSPDDTGGEDQTTAPSWRACDNCRARKIKCDKRSPCSNCRVSNAICRTAKK,30600
19,MFFIIILFLVIYSGKISSNFLSFLYRLLLFMLISAQLSVLHCYCLYIFHRCYC,30900
20,RAKNRAKEEESAAQQKQAQHQQHQQHQQHRQGEEAGSAGRAEAAAAAAAAGAD,26200
21,SLILVTYNTSHIACFYLLPQPHYFHLTSFLFLSIFFFLFSSLEHGSSFLAFFH,52500

row,Sequence,transcriptional activation domain activity
1,PTASTIYEEAESQSSYLDDMFRTSQGGRPVTQNSISSIGQGPLRSSYSMAYDS,51300
2,TCRLSSPHLWWLTFGILCVLYLMVLEIFLLGLLVFFVGPLFYLFWNVVLLCLG,79500
3,GDDETDAPAKPKEGEDEKKPSSASPEDDLRSSRRSHKKREPGHRDRDRERDRD,15300
4,SIYLCTHGTFFVVVTPIYFDYPCCGNPLVLFSSTLGMIIHFILFFFCLPCFFL,63100
5,MGLSDWPRVLSWHASISLVYLPFWVVVSLVWRYHIWTLSSVVLIIFIHIIFGL,31700
6,MLSLIFLFMIPYIHDNIFISYSPITKFMHLFIPFIIITNIFLFYTYFSILLSL,37600
7,GRGKESLLVLSGCSLIQIPVPVWGYHIAFVVCQKYYGSHLGIVHLILPFAFTI,47800
8,HWSYYRNGNMIINFFYKEIINIGYLFWFQIYCAWSTAQAIDYVYLLFWNAFWT,77100
9,ESASAAEEPAAKSKRGKKSQAEPEEEELSAVDEEHEPAPKSKRSKKSKAAVET,13800
10,DFTLEQDPDVLDTWFSSGLWPFSILGWPDKTPDLKTFYPATILETGWDILFFW,54800
11,GAKDLDDAVSIKVNEDGTYDVSVHVADVSFFVKPNTALDRDARKRATSVYLVQ,48400
12,MPAYLDKPLTFLAFDWCVTFFFFCCFFLLILFLSLLVINVIVLCLLPLISLVS,< 6570
13,NSLKGMAVDFRWWLLAHKKRPLREVNLILQLDSLTEVIKLACVSPKLSFLCIM,71000
14,KASLGTGDAGKATTKSASAAVKSKAAAKSAKASDSKGGGEDEEEDGGAPKKKK,18900
15,MSIVLLCSHIFYTLLGSRRFIAACFFWSLSVPSHLSHICLSCIFLLLSFFLLC,53900
16,RLRVLYSAWQLHVDGKVRIGTLAIIGSFKELRYLGGKRTRRCGLVALLLLSAY,50700
17,SFTLYTIGICGLCDQFGLFCWVHMSLLIIVLSSHFIVNNILEGLIWFWVPASL,31400
18,SRWFLVLFLLPYPRASPFFLVLYLFSLILHSRPCLYCIVLLTVLFTSSCYWAP,53600
19,GKFLTVLLALSVMGSVAATSVAIFSFNNIRSNVYSFYSISLNMQILMPVLVYV,41200
20,GVSMGSGYFFMVWLTMWLYSELNFWVIDGVCSLVEMQWMPFFILSWIICQVAG,50800
21,SLPPPRFSPMFSFSLMSYLRCFDYYVCFFFSLFCFFSPALLVEGVVTFFSFIH,60100

row,Sequence,transcriptional activation domain activity
1,SNYSNLATRAPSGPPQFLVNNVIQHWGGVDGWIKWILKIRKAYILRRDVFLAT,56800
2,KHMHLESKPPQLPPKCSSLRKPTNTLQGTNHAYHEHILNTDMDLKILEDLCNI,64100
3,GAQKPFDLTHWNITEYDCQGFDGYHEMSFFVLASHLYYRSLRSIPSLVRLWWI,75200
4,LSIWVKYLGCIVRWRKVRIFGESILPIQLLVVVVLLTLRPCSICAPLKVLPYK,66000
5,MSRPSGCRSATSTGRATCSGCRRSSSPARPPCASRRARCSCGCVCASPTSTRR,12100
6,PQCYNNWKSLLLLQRYLYFVLPPFPVHFLPIFKILCTYIQLLIWFATISLASL,40700
7,MGFKDFPFVDFAVFFFFFFSPFFSSMFILSFIYLFWFDLGIGLVGVLLFFFCH,47500
8,ASSSAPAAEPEAAAEEAPKKEEAAPAKEEPAAATTATAAAAGESSEAPKEAAP,33900
9,IFVLDIIQVRCNYFFFLSFLFIWMRSMFFLCSNRLVALFLFYFSGSTLRVTIM,51300
10,MLQQRGILRVFRIGLFILFVILLFSFLVFVTFFISLAFPHLLLVLCIFFHFFN,44200
11,IPIQLGCMHLHSPWMTYALLYQLIYPMMMIYNLVNCIYFGTGTQMLWWMVSIV,73000
12,ADGEEEEEEGEAAGGSERPGIWGQALMELGSTVCTPKPKCVECPVTATCRAYQ,55800
13,KFCAITLAGTWGKVVLYSLAMTRVVSYCYNIYYMDSVFSRTIRPGIGICFTSL,67100
14,EAEEEESEKKDKKRKKDKEGKKKKKSKSSEEKETEEEKVEEKKSEESSESKKD,< 6570
15,METSASARSPPPSTRQPSAPRRVRAALACQRCKGRKQKCEGGQPSCRSCIKAG,60700
16,MAGSFFFSFFFLSLFMLFHFLSLSFLIFFFLSSLSSFAFLLLLISPFGPPNPH,54400
17,MVAVVEVWVGEGVGEFWHLVKVWEGFLKLEYPVFFFDVWFFYDPFFCALGFFI,79300
18,MAPAPAPVAAPPAPETREAPPASPRGRSRSRSRSPAFRRPSPPAPRRPVGAPA,29100
19,MFIVCLFLFMILHYSFMFYIFGSNYLLLLLLVLLSWWFFLLYFPTFIFLFGVL,48700
20,IGYFVPTTKFHGPARFGYLEYADHIFRLYEILDWRVFVGISLFLHWVFSYSHT,39100
